B1: PRPH (parent)
chain: RTFGPPPSLSPGAFSYSSSSRFSS

Variants of: B1
Experiment: protein stability index of a GFP-peptide fusion (GPS, HEK-293T) (PSI 1-6); higher = more stable
Details: c terminus: a fixed tail appended
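Further: lentivirally expressed fusions sorted by FACS into six bins by GFP to DsRed ratio, PSI derived from sequencing read proportions per bin multiplied by bin number.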

Protein stability index of substitutions, site by site:
T2: Q 2.92; K 2.49; D 3.21; S 3.73; G 2.89; M 2.52; P 3.08; V 2.23; L 2.43; Y 2.31; N 2.92; F 2.46; A 2.95; H 3.17; C 2.02; I 2.97
F14: E 4.21; T 4.16; Y 2.87; W 3.22; R 4.11; C 3.09; H 3.7; A 3.53; Q 4.01; V 3.52; M 3.28; L 3.4; I 3.17; K 4.23; N 4.03; G 3.3
S15: V 2.74; P 3.03; Y 2.56; F 2.43; W 2.31; G 3.64; A 3.27; Q 3.18; N 3.37; D 3.49; E 3.22; K 3.29; I 2.95; L 2.62; T 3.48; H 2.85; C 2.33; R 2.33; M 2.65
S8: E 3.49; C 3.04; K 2.58; N 3.5; D 3.04; V 2.59; G 2.68; M 2.93; W 2.75; R 3.83; I 2.78; L 3.14
F3: N 3.38; D 4.09; A 3.33; G 3.13; W 3.19; L 4.11; T 3.54; V 3.31; C 2.82; M 3.75; K 3.38; R 3.41; I 3.46; Y 3.16; E 3.72; S 3.6
G12: D 3.24; N 3.14; T 3.31; S 3.42; E 3.27; I 3.05; F 2.16; W 2.25; R 3.35; M 2.89; Y 2.93; C 1.96; V 3.36; K 3.21; L 2.47
S18: G 3.38; N 3.22; K 3.9; E 3.57; F 2.45; I 2.66; D 2.94; V 3.24; Y 2.98; H 2.8; T 3.25; Q 3.5; M 2.75; A 2.76; C 3.5; L 2.59; W 2.77; R 3.38; P 2.93
S19: C 2.66; F 2.38; M 2.26; E 3.55; T 3.23; A 3.08; I 2.45; K 3.7; G 3.46; V 3.63; L 2.93; W 2.19; H 2.81; P 3.12; R 3.5; N 3.46; Y 2.38; Q 2.66
L9: H 3.54; K 3.8; A 3.52; V 3.31; G 3.64; C 2.71; T 3.7; S 3.8; F 3.39; N 3.42; Q 3.76; E 3.44; D 3.61; Y 2.94; R 4.05; W 3.09
P11: R 3.63; I 2.46; F 2.11; D 3.45; G 2.88; Y 2.41; N 3.12; S 3.04; W 2.23; C 1.64; L 2.59; Q 3.38; T 2.94; E 4; K 2.44; V 2.69; A 3.11; H 2.74; M 2.52
P5: N 3.55; G 2.84; T 3.29; A 2.76; K 2.99; Y 2.65; C 2.64; D 3.35; L 2.07; I 2.5; S 2.99; W 2.21; R 2.71; F 2.61; H 2.81; Q 2.6; V 2.89; M 2.6; E 3.23
G4: I 2.55; D 3.36; E 3.43; K 2.26; W 2.22; M 3.08; H 3.2; C 2.9; Q 3.26; R 3.1; F 3.06; N 3.12; S 3.21; V 2.37; L 2.42
S10: F 2.67; K 3.06; R 3.15; Y 2.36; C 3.45; H 3.13; D 2.76; G 3.46; E 3.23; M 3.61; I 3.19; L 3.24; W 2.9; Q 3.34; V 2.78; N 3.15
R21: C 3.19; D 3.3; A 2.46
P6: K 3.25; R 3.02; T 2.71; Q 3.03; L 2.95; D 2.86; N 3.1; F 2.15; Y 2.11; W 2.01; H 2.79; S 3.37; V 3.05; A 2.76; I 2.9; C 2.09; G 3.02; E 2.83; M 2.8
S17: I 2.55; P 3.16; E 3.59; K 3.04; Y 3.07; C 2.85; Q 3.1; A 3.02; W 2.27; N 3.71; V 2.75; R 2.99; H 2.54; L 2.53; T 3.19; D 3.06; F 2.37
A13: F 2.98; H 3.05; V 2.94; S 2.73; R 3.01; W 2.79; M 3.29; E 3.51; Q 3.62; G 3.21; I 3.33; L 3.18; C 2.86; T 3.45; K 3.42; D 3.5; P 3.21; Y 3.14; N 3.94
S20: A 3.71; K 3.81; T 2.94; V 2.86; L 2.48; H 2.96; I 2.43; W 2.09; G 2.99; Q 3.57; C 2.33; E 2.76; M 3.05; P 3.45; Y 2.74; F 2.35; R 3.41; D 3.23; N 3.31
R1: T 2.63; S 3.01; W 2.81; Y 2.4; V 1.97
Y16: L 3.95; D 3.9; V 3.69; R 3.92; F 2.99; H 4.04; W 3.36; G 4.28; Q 3.62; S 3.86; P 4.1; T 3.64; I 3.31; C 3.18; A 3.81; E 3.98; K 3.66
P7: S 3.26; T 3.56; L 2.71; G 2.92; Y 2.12; M 2.77; D 3.45; K 3.71; E 2.89; H 3.15; W 2.08; A 3.22; Q 3.13; C 1.6; F 2.34; N 3.02; I 2.53; V 2.86; R 2.93
